Our source for the Kd values is paper PMC9984387, “The dynamic nature of netrin-1 and the structural basis for glycosaminoglycan fragment-induced filament formation” (Nature Communications, 2023).

pKd: −log10 of the molar value.

One may read the pKd as the Kd on a negative log10 scale, so that one unit is a factor of ten.

The experiment deals with His-tagged NET1ΔC (coated in ELISA) (not stated (chicken or mouse cDNA cloned)). Nature of the experiment: ELISA; NET1ΔC coated; serial dilutions of strep-tagged HSPGs (0.5–500 nM) in solution; detection with strep-HRP; apparent constants.

“glypican-3 (AF185614 aa 25-557 R357A) (from UniProt Q8CFZ4 25-557) (domain or fragment)”: the negative-log Kd (pKd) was 7.70 to 8.00.
